The values that follow come from patent publication US20220145332.

The test system of the data set is hsSB (high-solubility Sleeping Beauty transposase, recombinant) (artificial). The data set is described as follows: cell_activity. The note with it: HeLa, 3 weeks.

Take “Venus transposon minicircle (SB LE/RE ends)”: the activity (% Venus-positive cells) (hsSB added to culture medium, up to 3.31% in iPSCs (FIG. 9)) was less than 12.

As for “Venus transposon plasmid (SB LE/RE ends)”, the activity (% Venus-positive cells) (protein electroporation, 20 ug hsSB, maximum efficiency, also active in CHO and mESC) was determined as 42.
